Measured values taken from patent JP2006306895A (dated 2006).
Residue numbers refer to the chain shown, from its start.

B1: ヒト型化#23-57-137-1抗体 L鎖バージョン"j" (antibody, V domains shown)
VH: QVQLVESGGGVVQPGRSLRLSCAASGFTFSSYGMSWVRQAPGKGLEWVATISSGGSYTYYPDSVKGRFTISRDNSKNTLYLQMNSLRAEDTAVYYCARQTTMTYFAYWGQGTLVTVSS
VL: QLVLTQSPSASASLGASVKLTCTLSSQHSTYTIEWYQQQPEKGPKYLMDLKQDGSHSTGDGIPDRFSGSSSGAERYLTISSLQSEDEADYYCGVGDTIKEQFVYVFGGGTKLTVLG
notes: Humanized H chain version a with human Cγ1; human lambda L chain C region; also called hMBC1HcDNA/pCOS1 + hMBC1Ljλ/pCOS1; version j
B2: ヒト型化#23-57-137-1抗体 L鎖バージョン"o" (antibody, V domains shown)
VH: B1 VH
VL: B1 VL with K45R, L47V
notes: Humanized H chain version a with human Cγ1; human lambda L chain C region; also called hMBC1HcDNA/pCOS1 + hMBC1Loλ/pCOS1; version o
B3: ヒト型化#23-57-137-1抗体 L鎖バージョン"t" (antibody, V domains shown)
VH: B1 VH
VL: B1 VL with K45R, L47V, Y91I
notes: Humanized H chain version a with human Cγ1; human lambda L chain C region; also called hMBC1HcDNA/pCOS1 + hMBC1Ltλ/pCOS1; version t
B4: ヒト型化H鎖バージョン"a"とキメラL鎖を組み合わせた抗体 (antibody, V domains shown)
VH: B1 VH
VL: QLVLTQSSSASFSLGASAKLTCTLSSQHSTYTIEWYQQQPLKPPKYVMDLKQDGSHSTGDGIPDRFSGSSSGADRYLSISNIQPEDEAMYICGVGDTIKEQFVYVFGGGTKVTVLG
notes: Human Cγ1 H chain C region; also called humanized H chain version a + chimeric L chain
B5: ヒト型化#23-57-137-1抗体 L鎖バージョン"q" (antibody, V domains shown)
VH: B1 VH
VL: B1 VL with Y91I
notes: Humanized H chain version a with human Cγ1; human lambda L chain C region; also called ヒト型化抗体バージョンq; hMBC1HcDNA/pCOS1 + hMBC1Lqλ/pCOS1
B6: ヒト型化#23-57-137-1抗体 L鎖バージョン"l" (antibody, V domains shown)
VH: B1 VH
VL: B1 VL with L47V
notes: Humanized H chain version a with human Cγ1; human lambda L chain C region; also called hMBC1HcDNA/pCOS1 + hMBC1Llλ/pCOS1; version l
B7: ヒト型化#23-57-137-1抗体 L鎖バージョン"m" (antibody, V domains shown)
VH: B1 VH
VL: B1 VL with K45R
notes: Humanized H chain version a with human Cγ1; human lambda L chain C region; also called hMBC1HcDNA/pCOS1 + hMBC1Lmλ/pCOS1; version m

Each binder was assayed against T1, ヒトPTHrP(1-34) (human) (assay: ELISA, plate-coated human PTHrP(1-34)).
T1 construct: Synthetic peptide, coated on ELISA plates (Peptide Institute) or mixed with antibody in the cAMP neutralisation assay; also called human parathyroid hormone related protein (1-34)

Binding result, binds:
B1
B2
B3
B4
B5
B6
B7
